The target in data set [1] is BG505 NFL.664 (native flexibly linked, cleavage-independent soluble HIV Env trimer) (HIV-1 isolate BG505 (clade A)). In words: crystal structure.
Data set [2] shares this target. As to the kind of experiment: cryo-EM structure.
Another data set is described as follows: DSC. To be noted: glycan changed form; control: BG505 NFL.664 from HEK 293F, natural glycoforms.
Another data set addresses BG505 SOSIP.664. As to the kind of experiment: BLI. On the technique in general: BLI is a label-free optical method that tracks binding on a fibre tip over time.

The results in this text go back to paper PMC5955915.

In general, stoichiometry N refers to the number of molecules, sites or subunits per partner or assembly. Turning to “BG505 NFL.664 (native flexibly linked, cleavage-independent soluble HIV Env trimer)”, the stoichiometry N in data set [1] and in data set [2] was 3 throughout.
For “BG505 NFL.664 Env trimer: kifunensine and swainsonine (oligomannose only)”, in “DSC”, the “stability_or_folding, Tm” value is “no change, 66.6 vs 65.8”.
What is called Kd is the concentration at which binding is half-saturated. As a reminder, the koff is the first-order rate constant of dissociation. A lower koff goes with a long-lived complex. In the data set with BG505 SOSIP.664, PGT121 Fab gave a Kd of 58.5 nM and a koff of 0.00033 s⁻¹.
Taken in the same sequence, the figures for PGT124 Fab were 38.3 nM and 0.00059 s⁻¹.
